We go through three molecules from patent US20240209094A1 (PIERRE FABRE MEDICAMENT, published 2024).

Values joined by “and” are separate entries in the source; they are usually repeats but may differ in a detail not shown here. Equal values may be shown once.

Test [1] concerns the target T1, hVISTA-Fc labelled with d2 (human, UniProt Q9H7M9 33-194, labelled with d2 (HTRF acceptor); site not stated).
T1 construct: It may be the same protein as rhVISTA-Fc of the Biacore assay, with a d2 label; also called VISTA-Fc-d2; not shown: Fc
T1 sequence: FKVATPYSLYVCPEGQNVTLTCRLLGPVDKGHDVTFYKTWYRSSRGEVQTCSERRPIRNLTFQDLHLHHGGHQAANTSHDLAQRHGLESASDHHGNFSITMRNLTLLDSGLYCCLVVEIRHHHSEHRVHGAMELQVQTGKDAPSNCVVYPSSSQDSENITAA
Put plainly: HTRF, VISTA-Fc-d2 and PSGL1-His/anti-His-Tb, pH 6; antibody at 5 µg/mL; mean of 3 experiments.

Test [2] has as its target T1, hVISTA-Fc labelled with d2. Put plainly: HTRF, VISTA-Fc-d2 and PSGL1-His/anti-His-Tb, pH 6; antibody at 2.5 µg/mL; mean of 3 experiments.
In test [3] the target is T1, hVISTA-Fc labelled with d2. Kind of test: HTRF, VISTA-Fc-d2 and PSGL1-His/anti-His-Tb, pH 6; antibody at 0.63 µg/mL; mean of 3 experiments.
Test [4] concerns the target T1, hVISTA-Fc labelled with d2. Kind of test: HTRF, VISTA-Fc-d2 and PSGL1-His/anti-His-Tb, pH 6; antibody at 1.25 µg/mL; mean of 3 experiments.
The target in test [5] is T1, hVISTA-Fc labelled with d2. Put plainly: HTRF, VISTA-Fc-d2 and PSGL1-His/anti-His-Tb, pH 6; antibody at 0.31 µg/mL; mean of 3 experiments.
The target in test [6] is T1, hVISTA-Fc labelled with d2. Kind of test: HTRF, VISTA-Fc-d2 and PSGL1-His/anti-His-Tb, pH 6; antibody at 0.16 µg/mL; mean of 3 experiments. Background: In TR-FRET formats the signal depends on donor and acceptor labels being close together.
Test [7] addresses T1, hVISTA-Fc labelled with d2. Put plainly: HTRF competition, VISTA-Fc-d2 and PSGL1-His/anti-His-Tb, pH 6.
Test [8] concerns the target T1, hVISTA-Fc labelled with d2. Put plainly: HTRF, VISTA-Fc-d2 and PSGL1-His/anti-His-Tb, pH 6; antibody at 10 µg/mL; mean of 3 experiments.
Test [9] addresses T2, recombinant human (rh) VISTA-His protein (human, UniProt Q9H7M9 33-194).
T2 construct: A soluble His-tagged protein is probably the extracellular domain; also called rhVISTA-TagHis; rhVISTA-his (monomer); not shown: His tag
T2 sequence: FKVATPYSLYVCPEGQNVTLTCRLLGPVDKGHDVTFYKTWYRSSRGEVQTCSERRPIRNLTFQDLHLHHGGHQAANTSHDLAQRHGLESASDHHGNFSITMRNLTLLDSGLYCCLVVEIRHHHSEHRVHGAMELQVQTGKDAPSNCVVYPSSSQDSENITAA
Kind of test: direct ELISA, rhVISTA-His coated on plate; experiment n3. The procedure:
(§1) After incubation, the coating solution was removed and plates were blocked by adding 250 μl blocking buffer (0.5% gelatin in 1×PBS) for at least 1 hour at 37° C.

Test [10] deals with T2, recombinant human (rh) VISTA-His protein. Put plainly: indirect ELISA, rhVISTA-His captured by coated anti-His antibody; experiment n2. The procedure: as §1
Background: An ELISA detects its analyte on a solid surface through an enzyme-linked reagent.

The target is the same in test [11]. Kind of test: direct ELISA, rhVISTA-His coated on plate; experiment n1. On the procedure: as §1
Test [12] shares this target. Kind of test: indirect ELISA, rhVISTA-His captured by coated anti-His antibody; experiment n3. The procedure: as §1
Test [13] has the same target. Kind of test: indirect ELISA, rhVISTA-His captured by coated anti-His antibody; Mean EC50 'Prism' n = 3. On the procedure: as §1
Test [14] shares this target. Kind of test: indirect ELISA, rhVISTA-His captured by coated anti-His antibody; mean EC50 of n1-n3. On the procedure:
as §1

For test [15] the target is unchanged. Put plainly: direct ELISA, rhVISTA-His coated on plate; experiment n2. The procedure: as §1
Test [16] shares this target. Kind of test: direct ELISA, rhVISTA-His coated on plate; mean EC50 of n1-n3. On the procedure: as §1
The target is the same in test [17]. Kind of test: indirect ELISA, rhVISTA-His captured by coated anti-His antibody; experiment n1. The procedure: as §1
Test [18] shares this target. Put plainly: direct ELISA, rhVISTA-His coated on plate; Mean EC50 'Prism' n = 3. On the procedure: as §1

In general, IC50 refers to the midpoint of a concentration-inhibition curve. A lower IC50 goes with inhibition by little substance. For the molecule “anti-VISTA R&D Systems #71261 (antibody)”, the percentage of the specific HTRF signal is 50% in test [1]; 63% in test [2]; 81% in test [3]; 68% in [4]; 88% in [5]; 89% in test [6]. Further, in test [8], the percentage of the specific HTRF signal stood at 34%. The molecule also yielded an IC50 in test [7] of 333 nM.

B1: anti-VISTA antibody Ab1 (N55D substitution in the CDR-H2) (antibody, human IgG1, kappa, V domains shown)
VH: QVQLVQSGAEVKKPGASVKISCKASGFSFTGYTMNWVRQAPGQGLEWIGLISPYDGGTSYAQKFQGRATLTVDTSTSTAYMELSSLRSEDTAVYYCARRAYGYAMDYWGQGTLVTVSS
VL: EIVLTQSPATLSLSPGERVTMSCSASSSVSYMYWYQQKPGQAPRLLIYDTSNLASGVPARFSGSGSGTDYTLTISSMEPEDFAVYYCQQWSSYPFTFGQGTKLEIKR
modifications: N-terminal glutamine mainly in the pyroglutamic acid form; N-glycan at Asn298; most of the C-terminal lysines clipped
notes: also called anti-VISTA Ab1
What is called EC50 is the concentration giving half of the maximal effect. For the molecule B1, the EC50 in test [9] was found to be 0.928 nM; in test [10], 0.0447 nM; in [11], 1.04 nM; in test [12], 0.0465 nM; in test [13], 0.0471 nM; in [14] it was 0.0471 nM. In addition, the EC50 in test [15] was 1.08 nM; in test [16], 1.02 nM; in test [17], 0.0501 nM; in [18], 1.02 nM. The IC50 in test [7] worked out at 2.3 nM.

B2: monoclonal antibody Ab3 (unmutated antibody) (antibody, human IgG1, kappa, V domains shown)
VH: QVQLVQSGAEVKKPGASVKISCKASGFSFTGYTMNWVRQAPGQGLEWIGLISPYNGGTSYAQKFQGRATLTVDTSTSTAYMELSSLRSEDTAVYYCARRAYGYAMDYWGQGTLVTVSS
VL: EIVLTQSPATLSLSPGERVTMSCSASSSVSYMYWYQQKPGQAPRLLIYDTSNLASGVPARFSGSGSGTDYTLTISSMEPEDFAVYYCQQWSSYPFTFGQGTKLEIKR
modifications: partly deamidated at N55 (mixture of N55/N55, N55/D55 and D55/D55 charge variants)
notes: The batch is kept in the printed label of each row; also called Ab 3 batch 1; Ab 3 batch 2
On to B2, for which the EC50 is 0.645 nM and 0.901 nM in test [9]; 0.0342 nM and 0.0418 nM in test [10]; 0.641 nM and 1.1 nM in test [11]; 0.0386 nM and 0.038 nM in test [12]; 0.0393 nM in test [13]; 0.0396 nM and 0.0393 nM in test [14]. The EC50 is 0.728 nM and 0.877 nM in test [15]; 0.671 nM and 0.961 nM in test [16]; 0.0458 nM and 0.0382 nM in test [17]; 0.959 nM and 0.671 nM in test [18].
